Measurements reported in publication PMC9082959, “Mechanism of Assembly of the Non-Covalent Spectrin Tetramerization Domain from Intrinsically Disordered Partners” (Journal of molecular biology, 2013).

Assays:
Settings in all cases: both partners purified
β16β17 Q25A = molecular target: T1, β16β17 Q25A (human, UniProt P11277 1898-2083, Q2028A); experiment: ITC; β16β17 at 25–50 μM in the cell titrated with 15–20 injections to 2–2.5 eq of α0α1; one-site binding model; PBS (50 mM sodium phosphate, 150 mM NaCl, pH 7.04), 25 °C; mutants only against the wild-type partner
T1 construct: erythrocyte β-spectrin, human, residues 1898-2083 (β16β17); mutant of m2; also called Q2028A; source: E. coli C41(DE3), purified (Ni2+ agarose, thrombin cleavage, gel filtration)
T1 sequence (looked up): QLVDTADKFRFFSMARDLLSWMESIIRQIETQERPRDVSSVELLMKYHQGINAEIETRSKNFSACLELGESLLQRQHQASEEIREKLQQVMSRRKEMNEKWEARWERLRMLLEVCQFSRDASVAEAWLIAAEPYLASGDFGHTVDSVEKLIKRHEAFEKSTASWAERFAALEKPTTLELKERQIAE

β16β17 L29A = molecular target: T2, β16β17 L29A (human, UniProt P11277 1898-2083, L2032A); experiment: as above
T2 construct: erythrocyte β-spectrin, human, residues 1898-2083 (β16β17); mutant of m2; also called L2032A; source: E. coli C41(DE3), purified (Ni2+ agarose, thrombin cleavage, gel filtration)
T2 sequence (looked up): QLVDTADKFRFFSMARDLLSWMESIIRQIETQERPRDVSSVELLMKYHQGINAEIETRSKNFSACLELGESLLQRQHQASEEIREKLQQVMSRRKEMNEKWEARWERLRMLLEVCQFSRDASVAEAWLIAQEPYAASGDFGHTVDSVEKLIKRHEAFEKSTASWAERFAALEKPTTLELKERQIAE

β16β17 D39G = molecular target: T3, β16β17 D39G (human, UniProt P11277 1898-2083, D2042G); experiment: as above
T3 construct: erythrocyte β-spectrin, human, residues 1898-2083 (β16β17); mutant of m2; also called D2042G; source: E. coli C41(DE3), purified (Ni2+ agarose, thrombin cleavage, gel filtration)
T3 sequence (looked up): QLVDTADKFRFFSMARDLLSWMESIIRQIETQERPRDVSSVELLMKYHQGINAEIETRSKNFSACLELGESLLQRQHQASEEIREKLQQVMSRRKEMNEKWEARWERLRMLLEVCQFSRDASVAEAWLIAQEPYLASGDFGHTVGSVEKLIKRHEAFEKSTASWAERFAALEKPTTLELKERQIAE

β16β17 A50G = molecular target: T4, β16β17 A50G (human, UniProt P11277 1898-2083, A2053G); experiment: as above
T4 construct: erythrocyte β-spectrin, human, residues 1898-2083 (β16β17); mutant of m2; also called A2053G; source: E. coli C41(DE3), purified (Ni2+ agarose, thrombin cleavage, gel filtration)
T4 sequence (looked up): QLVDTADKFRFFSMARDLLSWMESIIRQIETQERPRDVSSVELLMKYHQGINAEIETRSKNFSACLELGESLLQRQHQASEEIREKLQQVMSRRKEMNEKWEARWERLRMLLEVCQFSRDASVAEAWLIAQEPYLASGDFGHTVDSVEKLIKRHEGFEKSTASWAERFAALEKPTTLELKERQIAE

β16β17 K53A = molecular target: T5, β16β17 K53A (human, UniProt P11277 1898-2083, K2056A); experiment: as above
T5 construct: erythrocyte β-spectrin, human, residues 1898-2083 (β16β17); mutant of m2; also called K2056A; source: E. coli C41(DE3), purified (Ni2+ agarose, thrombin cleavage, gel filtration)
T5 sequence (looked up): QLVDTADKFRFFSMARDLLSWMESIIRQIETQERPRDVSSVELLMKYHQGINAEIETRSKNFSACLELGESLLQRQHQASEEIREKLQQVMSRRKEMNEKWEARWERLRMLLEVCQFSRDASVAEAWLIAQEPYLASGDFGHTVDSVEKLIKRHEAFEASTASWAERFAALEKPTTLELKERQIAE

[1] = molecular target: T6, β16β17 (erythrocyte β-spectrin residues 1898–2083), wild type (human, UniProt P11277 1898-2083); experiment: stopped-flow intrinsic tryptophan fluorescence (dissociation/unfolding kinetics); wild type; observed rate constants for tetramer dissociation calculated from folding and unfolding experiments in urea; k− in water with mk− 1.44 M^-1; PBS, 25 °C
T6 construct: erythrocyte β-spectrin, human, residues 1898-2083 (β16 plus the incomplete 17th domain); synthetic gene (GenScript) in a modified pRSETA plasmid; source: E. coli C41(DE3), purified (Ni2+ agarose, thrombin cleavage, gel filtration)
T6 sequence (looked up): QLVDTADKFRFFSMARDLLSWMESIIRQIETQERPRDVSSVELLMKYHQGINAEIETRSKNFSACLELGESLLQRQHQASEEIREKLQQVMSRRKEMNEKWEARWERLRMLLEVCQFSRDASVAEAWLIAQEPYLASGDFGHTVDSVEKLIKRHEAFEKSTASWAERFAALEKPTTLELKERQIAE

B1: α0α1 (erythrocyte α-spectrin residues 2–163), wild type (domain or fragment, human, UniProt P02549 2-163, looked up)
chain: EQFPKETVVESSGPKVLETAEEIQERRQEVLTRYQSFKERVAERGQKLEDSYHLQVFKRDADDLGKWIMEKVNILTDKSYEDPTNIQGKYQKHQSLEAEVQTKSRLMSELEKTREERFTMGHSAHEETKAHIEELRHLWDLLLELTLEKGDQLLRALKFQQY
notes: synthetic gene (GenScript) in a modified pRSETA plasmid; also called α1α0; source: E. coli C41(DE3), purified (Ni2+ agarose, thrombin cleavage, gel filtration)
With B1 the Ka (β16β17 Q25A) was 120000 M⁻¹, the Ka (β16β17 L29A) was 290000 M⁻¹ and the Ka (β16β17 D39G) was 280000 M⁻¹. It also gave a Ka (β16β17 A50G) of 163000 M⁻¹, a Ka (β16β17 K53A) of 1.5e+06 M⁻¹ and a koff [1] of 0.00025 s⁻¹.
